# According to publication PMC10286367:
# B1: NF-κB p65: Ogt cKO (protein)
# parent chain: MDDLFPLIFPSEPAQASGPYVEIIEQPKQRGMRFRYKCEGRSAGSIPGERSTDTTKTHPTIKINGYTGPGTVRISLVTKDPPHRPHPHELVGKDCRDGYYEADLCPDRSIHSFQNLGIQCVKKRDLEQAISQRIQTNNNPFHVPIEEQRGDYDLNAVRLCFQVTVRDPAGRPLLLTPVLSHPIFDNRAPNTAELKICRVNRNSGSCLGGDEIFLLCDKVQKEDIEVYFTGPGWEARGSFSQADVHRQVAIVFRTPPYADPSLQAPVRVSMQLRRPSDRELSEPMEFQYLPDTDDRHRIEEKRKRTYETFKSIMKKSPFNGPTEPRPPTRRIAVPTRNSTSVPKPAPQPYTFPASLSTINFDEFSPMLLPSGQISNQALALAPSSAPVLAQTMVPSSAMVPLAQPPAPAPVLTPGPPQSLSAPVPKSTQAGEGTLSEALLHLQFDADEDLGALLGNSTDPGVFTDLASVDNSEFQQLLNQGVSMSHSTAEPMLMEYPEAITRLVTGSQRPPDPAPTPLGTSGLPNGLSGDEDFSSIADMDFSALLSQISS
# B2: NF-κB p65: S370A (protein)
# parent chain: MDDLFPLIFPSEPAQASGPYVEIIEQPKQRGMRFRYKCEGRSAGSIPGERSTDTTKTHPTIKINGYTGPGTVRISLVTKDPPHRPHPHELVGKDCRDGYYEADLCPDRSIHSFQNLGIQCVKKRDLEQAISQRIQTNNNPFHVPIEEQRGDYDLNAVRLCFQVTVRDPAGRPLLLTPVLSHPIFDNRAPNTAELKICRVNRNSGSCLGGDEIFLLCDKVQKEDIEVYFTGPGWEARGSFSQADVHRQVAIVFRTPPYADPSLQAPVRVSMQLRRPSDRELSEPMEFQYLPDTDDRHRIEEKRKRTYETFKSIMKKSPFNGPTEPRPPTRRIAVPTRNSTSVPKPAPQPYTFPASLSTINFDEFSPMLLPSGQISNQALALAPSSAPVLAQTMVPSSAMVPLAQPPAPAPVLTPGPPQSLSAPVPKSTQAGEGTLSEALLHLQFDADEDLGALLGNSTDPGVFTDLASVDNSEFQQLLNQGVSMSHSTAEPMLMEYPEAITRLVTGSQRPPDPAPTPLGTSGLPNGLSGDEDFSSIADMDFSALLSQISS
# B3: NF-κB p65: S374A (protein)
# parent chain: MDDLFPLIFPSEPAQASGPYVEIIEQPKQRGMRFRYKCEGRSAGSIPGERSTDTTKTHPTIKINGYTGPGTVRISLVTKDPPHRPHPHELVGKDCRDGYYEADLCPDRSIHSFQNLGIQCVKKRDLEQAISQRIQTNNNPFHVPIEEQRGDYDLNAVRLCFQVTVRDPAGRPLLLTPVLSHPIFDNRAPNTAELKICRVNRNSGSCLGGDEIFLLCDKVQKEDIEVYFTGPGWEARGSFSQADVHRQVAIVFRTPPYADPSLQAPVRVSMQLRRPSDRELSEPMEFQYLPDTDDRHRIEEKRKRTYETFKSIMKKSPFNGPTEPRPPTRRIAVPTRNSTSVPKPAPQPYTFPASLSTINFDEFSPMLLPSGQISNQALALAPSSAPVLAQTMVPSSAMVPLAQPPAPAPVLTPGPPQSLSAPVPKSTQAGEGTLSEALLHLQFDADEDLGALLGNSTDPGVFTDLASVDNSEFQQLLNQGVSMSHSTAEPMLMEYPEAITRLVTGSQRPPDPAPTPLGTSGLPNGLSGDEDFSSIADMDFSALLSQISS
# B4: NF-κB p65: S384A (protein)
# parent chain: MDDLFPLIFPSEPAQASGPYVEIIEQPKQRGMRFRYKCEGRSAGSIPGERSTDTTKTHPTIKINGYTGPGTVRISLVTKDPPHRPHPHELVGKDCRDGYYEADLCPDRSIHSFQNLGIQCVKKRDLEQAISQRIQTNNNPFHVPIEEQRGDYDLNAVRLCFQVTVRDPAGRPLLLTPVLSHPIFDNRAPNTAELKICRVNRNSGSCLGGDEIFLLCDKVQKEDIEVYFTGPGWEARGSFSQADVHRQVAIVFRTPPYADPSLQAPVRVSMQLRRPSDRELSEPMEFQYLPDTDDRHRIEEKRKRTYETFKSIMKKSPFNGPTEPRPPTRRIAVPTRNSTSVPKPAPQPYTFPASLSTINFDEFSPMLLPSGQISNQALALAPSSAPVLAQTMVPSSAMVPLAQPPAPAPVLTPGPPQSLSAPVPKSTQAGEGTLSEALLHLQFDADEDLGALLGNSTDPGVFTDLASVDNSEFQQLLNQGVSMSHSTAEPMLMEYPEAITRLVTGSQRPPDPAPTPLGTSGLPNGLSGDEDFSSIADMDFSALLSQISS
# B5: NF-κB p65: S396A (protein)
# parent chain: MDDLFPLIFPSEPAQASGPYVEIIEQPKQRGMRFRYKCEGRSAGSIPGERSTDTTKTHPTIKINGYTGPGTVRISLVTKDPPHRPHPHELVGKDCRDGYYEADLCPDRSIHSFQNLGIQCVKKRDLEQAISQRIQTNNNPFHVPIEEQRGDYDLNAVRLCFQVTVRDPAGRPLLLTPVLSHPIFDNRAPNTAELKICRVNRNSGSCLGGDEIFLLCDKVQKEDIEVYFTGPGWEARGSFSQADVHRQVAIVFRTPPYADPSLQAPVRVSMQLRRPSDRELSEPMEFQYLPDTDDRHRIEEKRKRTYETFKSIMKKSPFNGPTEPRPPTRRIAVPTRNSTSVPKPAPQPYTFPASLSTINFDEFSPMLLPSGQISNQALALAPSSAPVLAQTMVPSSAMVPLAQPPAPAPVLTPGPPQSLSAPVPKSTQAGEGTLSEALLHLQFDADEDLGALLGNSTDPGVFTDLASVDNSEFQQLLNQGVSMSHSTAEPMLMEYPEAITRLVTGSQRPPDPAPTPLGTSGLPNGLSGDEDFSSIADMDFSALLSQISS
# B6: NF-κB p65: Ogt KD (protein)
# parent chain: MDDLFPLIFPSEPAQASGPYVEIIEQPKQRGMRFRYKCEGRSAGSIPGERSTDTTKTHPTIKINGYTGPGTVRISLVTKDPPHRPHPHELVGKDCRDGYYEADLCPDRSIHSFQNLGIQCVKKRDLEQAISQRIQTNNNPFHVPIEEQRGDYDLNAVRLCFQVTVRDPAGRPLLLTPVLSHPIFDNRAPNTAELKICRVNRNSGSCLGGDEIFLLCDKVQKEDIEVYFTGPGWEARGSFSQADVHRQVAIVFRTPPYADPSLQAPVRVSMQLRRPSDRELSEPMEFQYLPDTDDRHRIEEKRKRTYETFKSIMKKSPFNGPTEPRPPTRRIAVPTRNSTSVPKPAPQPYTFPASLSTINFDEFSPMLLPSGQISNQALALAPSSAPVLAQTMVPSSAMVPLAQPPAPAPVLTPGPPQSLSAPVPKSTQAGEGTLSEALLHLQFDADEDLGALLGNSTDPGVFTDLASVDNSEFQQLLNQGVSMSHSTAEPMLMEYPEAITRLVTGSQRPPDPAPTPLGTSGLPNGLSGDEDFSSIADMDFSALLSQISS
# B7: NF-κB p65: OE-Ogt (protein)
# parent chain: MDDLFPLIFPSEPAQASGPYVEIIEQPKQRGMRFRYKCEGRSAGSIPGERSTDTTKTHPTIKINGYTGPGTVRISLVTKDPPHRPHPHELVGKDCRDGYYEADLCPDRSIHSFQNLGIQCVKKRDLEQAISQRIQTNNNPFHVPIEEQRGDYDLNAVRLCFQVTVRDPAGRPLLLTPVLSHPIFDNRAPNTAELKICRVNRNSGSCLGGDEIFLLCDKVQKEDIEVYFTGPGWEARGSFSQADVHRQVAIVFRTPPYADPSLQAPVRVSMQLRRPSDRELSEPMEFQYLPDTDDRHRIEEKRKRTYETFKSIMKKSPFNGPTEPRPPTRRIAVPTRNSTSVPKPAPQPYTFPASLSTINFDEFSPMLLPSGQISNQALALAPSSAPVLAQTMVPSSAMVPLAQPPAPAPVLTPGPPQSLSAPVPKSTQAGEGTLSEALLHLQFDADEDLGALLGNSTDPGVFTDLASVDNSEFQQLLNQGVSMSHSTAEPMLMEYPEAITRLVTGSQRPPDPAPTPLGTSGLPNGLSGDEDFSSIADMDFSALLSQISS
# Columns and labels:
# [1] = WB of cytoplasmic and nuclear fractions; conditions: glycan lost; control: Ctrl astrocytes
# [2] = WB of total p65, cultured astrocytes; conditions: glycan lost; control: Ctrl astrocytes
# WB, cultured astrocytes = conditions: glycan lost; control: Ctrl astrocytes
# IP-WB in N2a cells = conditions: glycan lost; control: wild-type p65-HA
protein,measurement,setting,value
B1,localisation_or_trafficking,[1],changes
same,expression_or_secretion,[2],no change
same,other: p65 phosphorylation (p-p65 level),"WB, cultured astrocytes",increases
B2,other: p65 phosphorylation (p-p65 level),IP-WB in N2a cells,no change
B3,other: p65 phosphorylation (p-p65 level),IP-WB in N2a cells,no change
B4,other: p65 phosphorylation (p-p65 level),IP-WB in N2a cells,increases
B5,other: p65 phosphorylation (p-p65 level),IP-WB in N2a cells,no change
B6,other: p65 phosphorylation (p-p65 level),"HA IP-WB in N2a cells; glycan lost, control: control N2a cells",increases
B7,other: p65 phosphorylation (p-p65 level),"HA IP-WB in N2a cells; glycan gained, control: N2a cells without ectopic Ogt",decreases
